In article PMC4637903 one finds ratio to parent data, which are given here for 14 substances.

The target of one assay is wild-type β4 integrin (co-immunoprecipitations from transfected cells) (UniProt P16144). The assay is described as follows: co-immunoprecipitation (IP: β4) and Western blot, densitometry. The note with it: parent: 1.0. For orientation: In western blotting, separated proteins are transferred to a membrane and probed.
Sequence of UniProt P16144 (P16144 28-1822): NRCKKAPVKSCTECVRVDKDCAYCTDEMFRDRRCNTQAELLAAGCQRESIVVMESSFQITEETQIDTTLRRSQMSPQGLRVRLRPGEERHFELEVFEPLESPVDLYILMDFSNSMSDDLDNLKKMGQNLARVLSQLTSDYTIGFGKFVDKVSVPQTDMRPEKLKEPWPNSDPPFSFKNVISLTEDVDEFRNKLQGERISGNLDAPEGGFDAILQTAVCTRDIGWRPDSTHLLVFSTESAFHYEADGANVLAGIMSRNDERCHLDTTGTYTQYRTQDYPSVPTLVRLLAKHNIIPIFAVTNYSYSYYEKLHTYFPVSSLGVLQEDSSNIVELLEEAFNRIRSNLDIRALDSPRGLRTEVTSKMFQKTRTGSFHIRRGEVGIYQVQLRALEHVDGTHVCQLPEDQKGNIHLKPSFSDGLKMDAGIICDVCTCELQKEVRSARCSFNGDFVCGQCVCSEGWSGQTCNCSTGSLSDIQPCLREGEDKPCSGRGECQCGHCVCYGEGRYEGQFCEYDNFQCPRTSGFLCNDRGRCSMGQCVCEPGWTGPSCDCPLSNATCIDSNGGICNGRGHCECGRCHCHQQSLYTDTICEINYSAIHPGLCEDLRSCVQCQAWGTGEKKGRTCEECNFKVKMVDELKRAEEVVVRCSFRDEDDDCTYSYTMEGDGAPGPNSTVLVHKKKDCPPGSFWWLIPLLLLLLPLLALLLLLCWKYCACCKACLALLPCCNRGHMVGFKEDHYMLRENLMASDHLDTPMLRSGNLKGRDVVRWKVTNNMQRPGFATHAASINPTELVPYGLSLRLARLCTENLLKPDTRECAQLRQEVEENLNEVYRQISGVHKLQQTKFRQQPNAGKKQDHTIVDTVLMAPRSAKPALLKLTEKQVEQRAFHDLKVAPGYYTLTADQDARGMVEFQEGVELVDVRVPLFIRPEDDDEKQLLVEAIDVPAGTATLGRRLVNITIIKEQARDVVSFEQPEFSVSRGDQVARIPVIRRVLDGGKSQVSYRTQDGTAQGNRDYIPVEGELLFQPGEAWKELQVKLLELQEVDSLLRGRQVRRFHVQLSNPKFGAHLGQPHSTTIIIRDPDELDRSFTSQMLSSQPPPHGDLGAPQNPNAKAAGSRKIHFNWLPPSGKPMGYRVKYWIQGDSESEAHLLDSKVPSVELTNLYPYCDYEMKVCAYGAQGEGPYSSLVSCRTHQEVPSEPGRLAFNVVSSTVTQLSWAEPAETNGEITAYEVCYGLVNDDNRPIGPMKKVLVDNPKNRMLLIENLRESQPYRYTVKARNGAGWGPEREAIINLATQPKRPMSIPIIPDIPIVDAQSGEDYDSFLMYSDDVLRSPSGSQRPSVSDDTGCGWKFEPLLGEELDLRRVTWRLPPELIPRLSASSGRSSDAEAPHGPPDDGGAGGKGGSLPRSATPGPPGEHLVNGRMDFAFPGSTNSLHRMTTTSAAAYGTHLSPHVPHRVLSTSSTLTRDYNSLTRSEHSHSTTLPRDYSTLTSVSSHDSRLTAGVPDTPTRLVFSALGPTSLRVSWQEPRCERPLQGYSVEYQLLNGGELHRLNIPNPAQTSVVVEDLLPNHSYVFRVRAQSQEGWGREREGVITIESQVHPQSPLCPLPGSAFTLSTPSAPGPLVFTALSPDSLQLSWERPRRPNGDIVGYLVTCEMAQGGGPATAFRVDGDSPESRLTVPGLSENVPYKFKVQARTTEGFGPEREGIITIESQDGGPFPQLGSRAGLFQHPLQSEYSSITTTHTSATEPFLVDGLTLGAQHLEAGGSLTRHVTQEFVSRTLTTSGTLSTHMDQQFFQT
Take “wild-type FAK (co-immunoprecipitations from transfected cells) E380A; K381A; Q382A”: the ratio to parent came to 0.2.

As for “wild-type FAK (co-immunoprecipitations from transfected cells) R385A; S386A”, the ratio to parent is 0.7.

For another assay, the target named is wild-type FAK (co-immunoprecipitations from transfected cells). The assay is described as follows: co-immunoprecipitation (IP: Myc (β4)) and Western blot, densitometry. To be noted: parent: 1.0.
For “wild-type β4 integrin (co-immunoprecipitations from transfected cells) (from UniProt P16144) Y1422F”, the ratio to parent is 1.1. On to “wild-type β4 integrin (co-immunoprecipitations from transfected cells) (from UniProt P16144) Y1440F”, for which the ratio to parent came to 1.4. Still for that read-out and setting: then “wild-type β4 integrin (co-immunoprecipitations from transfected cells) (from UniProt P16144) Y1494F”, with 1.1; and “wild-type β4 integrin (co-immunoprecipitations from transfected cells) (from UniProt P16144) Y1526F”, with 0.5; and “wild-type β4 integrin (co-immunoprecipitations from transfected cells) (from UniProt P16144) Y1642F”, with 0.3.

For a further assay, the target named is wild-type β4 integrin (co-immunoprecipitations from transfected cells) (UniProt P16144). Described as above. To be noted: parent: 1.0.
“wild-type FAK (co-immunoprecipitations from transfected cells) E380A”: the ratio to parent was 0.3. Still for that read-out and setting: then “wild-type FAK (co-immunoprecipitations from transfected cells) G383A”, with 1.2; and “wild-type FAK (co-immunoprecipitations from transfected cells) K381A”, with 0.3. Consider “wild-type FAK (co-immunoprecipitations from transfected cells) N379A”, for which the ratio to parent was 1.4. Take “wild-type FAK (co-immunoprecipitations from transfected cells) Q382A”: the ratio to parent stood at 0.3. In the case of “wild-type FAK (co-immunoprecipitations from transfected cells) R385A”, the ratio to parent was 0.5. Same read-out and setting: then “wild-type FAK (co-immunoprecipitations from transfected cells) S386A”, with 1.2.
